Data: the MegaScale stability set (Tsuboyama et al. 2023)

B1: HEEH_KT_rd6_3632 (parent)
chain: DAEELIELVERALKEGREIILLGVRITSEEAGKWFIEWIRRFL
B2: 6NMW (parent)
chain: QGDIVVALYPYDGIHPDDLSFKKGEKMKVLEEHGEWWKAKSLLTKKEGFIPSNYVAKLN

Variants of: B1
Experiment: folding stability dG (cDNA display proteolysis); higher = more stable
Conditions: PBS, room temperature

Folding stability dG [kcal/mol]: each site, then its substitutions
L13: G 2.96
R17: I 3.85, D 2.99, K 3.59
E10: A 3.63
E4: T 4.03, V 3.91, F 4.15
K14: R 3.86
V24: Y 3.55
L5: K 2.83
L43: F 4.01
F35: L 3.66, H 2.85
G32: T 3.64
V9: Q 2.7
I6: V 3.48
E3: V 3.78
E15: Q 3.46
I36: P 2.59
G23: I 3.87
I26: K 3.26
S28: V 3.57, F 3.62
E29: M 3.92
I20: P 2.65
K33: N 3.52
G16: P 3.26
E30: D 3.63, W 4.01, Y 3.75
T27: G 3.67, Y 3.74
E37: K 3.66

Variants of: B2
Experiment: as above
Conditions: PBS, room temperature

Folding stability dG [kcal/mol] of substitutions, site by site:
Q1: L 4.29, F 3.8, E 3.97, A 3.87, W 4.06, D 3.76, C 4.65, R 3.79, T 4.18, G 3.67, Y 4.04, M 3.74, K 4.1, H 3.79, S 3.89, P 3.96, N 3.69
V5: M 1.65, H 1.41, L 1.66, W 4.11, Q -0.613, A 2.41, C 3.86, I 2.37, E -0.712, K -0.356, G -0.073, R 0.357, S 0.271, Y 4.22, T 0.383, F 3.21
I14: W 2.68, E 2.98, P 2.57, N 3.02, D 2.68, T 3.68, V 3.97, K 3.81, H 3.13, C 4.14, Q 3.67, S 3.09, Y 3.08, G 2.9, M 3.36, L 3.51, A 3.22, F 2.99
D18: F 4.07, E 4.6, A 3.61, C 4.07
I4: L 3, W 2.71, H 1.74, M 2.52, S 0.94, F 2.76, E 1.53, D 1.12, P -0.054, Y 2.98, R 0.874, A 0.908, T 2.35, V 3.08, G 0.464, K 0.841, Q 1.21, N 0.755, C 2.58
A7: F -0.602, Y -0.494, G 2.64, M 0.441, T 1.07, I -0.263, E 0.11, V 0.268, L -0.675, S 1.39, C 1.42
P10: V 2.27, F 2.47, C 3.89, T 4.18, A 4.23, W 2.74, G 3.56, Q 3.77, I 1.94, R 4.08, Y 2.66, M 2.75, L 2.23, N 4.84, H 3.93, S 4.61, K 3.78, E 3.31
P16: I 3, Q 3.08, F 2.73, R 2.87, W 2.79, N 2.68, H 2.92, A 3.29, G 2.75, S 2.98, D 3.22, K 3.4, L 2.7, T 2.87, C 3.56, M 2.81, V 3.11, Y 2.59
L8: K 2.3, M 2.78, F 1.24, G 0.062, N 1.23, V 2.29, I 3.04, A 0.801, Y 1.02, T 1.24, D -0.146, H 1.06, Q 1.62, R 1.94, E 0.697, C 3.47, W 1.21, S 0.987
D12: F 3.95, S 3.78, A 3.85, Y 3.86, M 3.84, R 4.19, K 4.34, G 2.7, H 4.08, W 3.78, V 4.41, T 4.32, P 3.14, C 4.27, I 4.38, N 3.98, L 3.69, Q 4.13
D17: P 2.35, Y 3.92, T 3.68, G 4.77, N 3.83, W 4.86, E 3.72, A 3.37, C 4.33, S 3.63, R 4.21, H 3.78, V 2.23, M 3.47, K 3.5, I 2.2, L 3.6, F 3.71, Q 3.88
G2: I 3.12, F 3.9, A 3.27, P 2.98, V 3.15, Y 3.95, R 3, L 3.21, C 4.54, D 3.46, E 3.29, T 3.29, N 3.5, H 3.74, S 3.54, Q 3.21, M 3.38, W 3.93, K 2.9
V6: L 2.18, A 1.29, S 1.15, I 4.06, Q 2.01, H 1.5, N 0.282, Y 3.49, K 1.52, F 2.89, M 2.59, T 2.18, G 0.392, R 1.9, W 2.05, C 3.01, D -0.164, E 2.18
H15: M 2.85, E 2.54, A 3.22, W 3.39, R 3.93, F 3.5, S 3.26, N 3.65, Y 3.75, G 3.99, L 2.87, V 1.77, C 4.24, D 2.54, I 1.63, Q 3.03, P 3.63, K 3.48
D3: T 4.52, Y 4.84, K 4.12, Q 4.27, C 4.72, M 4.59, F 4.91, L 4.43, G 3.47, I 4.5, R 4.02, N 3.87, H 4.61, S 4.3, A 4.25, P 3.09, E 3.77, V 4.37
Y9: R 4.07, K 3.61, C 4.44, W 3.66, A 2.74, M 3.43, H 2.81, Q 3.15, T 1.87, N 1.61, E 2.37, I 2.72, F 3.72, L 3.06, S 1.95, V 2.5, G 1.46, D 1.08
G13: Y 0.268, T 1.74, L 0.825, M 1.91, P 2.3, H 0.829, V 1.14, D 0.145, F 0.38, C 1.96, K 2.6, Q 2.01, R 2.26, S 3.39, N 1.32, W 0.736, E 1.2, I 0.929
Y11: A -0.375, S 0.369, F 3.93, H 1.71, Q -0.356, K 0.796, I 0.264, R 2.25, M 0.669, W 4.27, L 0.851, C 1.5, V 0.147, E -0.944, N 0.567
